Earlier results in patent publication US20090098130A1, “GLUCAGON-LIKE PROTEIN-1 RECEPTOR (GLP-1R) AGONIST COMPOUNDS” (priority 2007, published 2009).

B1: h38C2 IgG: humanized aldolase catalytic antibody h38c2 IgG1 (antibody, listed as Homo sapiens, V domains shown)
VH: EVQLVESGGGLVQPGGSLRLSCAASGFTFSNYWMSWVRQSPEKGLEWVSEIRLRSDNYATHYAESVKGRFTISRDNSKNTLYLQMNSLRAEDTGIYYCKTYFYSFSYWGQGTLVTVSS
VL: ELQMTQSPSSLSASVGDRVTITCRSSQSLLHTYGSPYLNWYLQKPGQSPKLLIYKVSNRFSGVPSRFSGSGSGTDFTLTISSLQPEDFAVYFCSQGTHLPYTFGGGTKVEIK
modifications: (1)..(30) FR1; (1)..(23) FR1
B2: m38C2 IgG: mouse monoclonal aldolase antibody with a reactive lysine (antibody, listed as Mus musculus, V domains shown)
VH: EVKLVESGGGLVQPGGTMKLSCEISGLTFRNYWMSWVRQSPEKGLEWVAEIRLRSDNYATHYAESVKGKFTISRDDSKSRLYLQMNSLRTEDTGIYYCKTYFYSFSYWGQGTLVTVSA
VL: DVVMTQTPLSLPVRLGDQASISCRSSQSLLHTYGSPYLNWYLQKPGQSPKLLIYKVSNRFSGVPDRFSGSGSGTDFTLRISRVEAEDLGVYFCSQGTHLPYTFGGGTKLEIK
modifications: (1)..(30) FR1; (1)..(23) FR1

Settings: after incubation with β-diketone

Molecule	enaminone absorbance (λmax=318 nm)
B1	showed the characteristic enaminone absorbance
B2	showed the characteristic enaminone absorbance
